Assay results as given in PMC5707411 (Nature Communications, 2017).

Columns and labels:
[1] = biological target: T1, full-length RSV F (TM, residues 1–574) from strain A2 with the DS-Cav1 prefusion-stabilizing mutations (Human respiratory syncytial virus A, …, UniProt P03420, stabilised); assay: flow cytometry on cells; Expi293 cells 48 h after transfection with full-length DS-Cav1 RSV F variants, stained with IgG 1 h at 4 °C (D25 Alexa Fluor 488-conjugated; 5C4 detected with FITC goat anti-mouse), fixed; fractional binding relative to motavizumab; details: one partner purified
T1 construct: signal peptide in the construct; In cells F0 is cut by furin-like proteases into F2 and F1 (pep27 removed) and forms trimers; also called RSV A2 pre-F; wild-type A2; source: Expi293, transiently transfected (pVRC8400), on the cell surface

[2] = biological target: full-length RSV F (TM, residues 1–574) from strain A2 with the DS-Cav1 prefusion-stabilizing mutations (Human respiratory syncytial virus A, …, UniProt P03420, stabilised); assay: cell-based or functional assay
[3] = biological target: T2, StrepTagII and 6xHis-tagged RSV pre-F (DS-Cav1) in the 9320 RSV F background (Human respiratory syncytial virus B, …, UniProt Q6V2E7, stabilised); assay: SPR; 6xHis-tagged pre-F (DS-Cav1) captured on an NTA sensor chip to ~150 RU, Biacore X100; Fab injected in 3-fold dilutions (5C4:pre-F 9320, 0.460–3000 nM); double-reference subtracted, 1:1 binding model; details: both partners purified
T2 construct: respiratory syncytial virus fusion glycoprotein, subtype B strain 9320, stabilised in the prefusion conformation by the DS-Cav1 mutations; also called pre-F 9320; pre-F derived from subtype B strain 9320; source: Freestyle 293-F, transfected, expressed with kifunensine (5 µM); purified from supernatant (Strep-Tactin)

[4] = biological target: T3, RSV F (+) FdTHS based on strain A2 (wild-type A2 RSV F ectodomain fused to a C-terminal trimerization motif) (Human respiratory syncytial virus A, …, fully glycosylated (N-linked) | fully glycosylated (N-linked)); assay: crystal structure; 5C4 Fab co-expressed with RSV F (+) FdTHS in Expi293, complex purified (Ni-NTA, Strep-Tactin, thrombin, Superose 6); crystal from 0.2 M ammonium acetate, 0.1 M Bis-Tris pH 6.5, 25% PEG 3350; 3.4 Å; details: both partners purified
T3 construct: F2 subunit (N-terminal fragment of F0 made by furin-like proteases) of the respiratory syncytial virus fusion glycoprotein, strain A2; ectodomain part of the F1 subunit (C-terminal fragment of F0 made by furin-like proteases) of the respiratory syncytial virus fusion glycoprotein, strain A2; Trimer of F2-F1 heterodimers; pep27 is removed by furin-like proteases; also called pre-F; F glycoprotein; …

B1: D25 IgG (antibody, V domains shown)
VH: QVQLVQSGAEVKKPGSSVMVSCQASGGPLRNYIINWLRQAPGQGPEWMGGIIPVLGTVHYAPKFQGRVTITADESTDTAYIHLISLRSEDTAMYYCATETALVVSTTYLPHYFDNWGQGTLVTVSS
VL: DIQMTQSPSSLSAAVGDRVTITCQASQDIVNYLNWYQQKPGKAPKLLIYVASNLETGVPSRFSGSGSGTDFSLTISSLQPEDVATYYCQQYDNLPLTFGGGTKVEIK
notes: D25 heavy chain (human antibody); the variable domain and CH1 are in the D25 Fab of the cited entry PDB 4JHW; rest of the IgG heavy chain not described; D25 light chain (human antibody); in the D25 Fab of the cited entry PDB 4JHW; also called mAb D25; Alexa Fluor 488-conjugated D25 IgG; copies: 2 + 2
Question: Does B1 bind [1]?
Answer: Result: binds

B2: 5C4 IgG (antibody, V domains shown)
VH: EVQLQQSGAELVKPGASVKLSCTASGFNIKDTFFHWVKQRPEQGLEWIGRIDPADGHTKYDPKFQGKATITADTSSNTAFLQLSSLTSVDTAVYYCATTITAVVPTPYNAMDYWGQGTSVTVSS
VL: DIVLTQSPASLAVSLGQRTTISCRASESVDSFDNSFIHWYQQKPGQPPKLLIFLASSLESGVPARFSGSGSRTDFTLTIDPVEADDAATYYCQQSNEDPFTFGSGTKLEIK
Question: With B2 as the binder, how does the “EC50 of 5C4 neutralisation of mKate-RSV A2 wild-type virus on HEp-2 cells (viral F without DS-Cav1; antibody format not given)” value [2] read?
Answer: The value was 4 ng/mL.

B3: 5C4 Fab (Fab, V domains shown)
VH: B2 VH
VL: B2 VL
notes: 5C4 Fab heavy chain (antibody elicited in mice); 5C4 Fab light chain (murine kappa, Vk3-10); source: Expi293, transiently co-transfected heavy and light chain plasmids; purified from supernatant (CaptureSelect LC-kappa (murine)); for the complex co-expressed with RSV F
Question: What does the source list for B3?
Answer: binding result [3]: binds; stoichiometry N [4]: 3
